Reference: paper PMC5146914

assay: circular dichroism; conditions: 10 mM PBS; pH 7.4; 25 °C; 50-800 uM

Compound | helicity [rel %]
CC(=O)N[C@H]1CCCCC[S@@](=O)C[C@@H](C(N)=O)NC(=O)[C@H](C)NC(=O)[C@H](Cc2ccccc2)NC(=O)[C@H](C)NC1=O | 92
CC[C@H](C)[C@@H]1NC(=O)[C@H](C)NC(=O)[C@@H](NC(C)=O)CCCCC[S@@](=O)C[C@@H](C(N)=O)NC(=O)[C@H](C)NC1=O | 86
CC(=O)N[C@H]1CCCCC[S@@](=O)C[C@@H](C(N)=O)NC(=O)[C@H](CCC(=O)O)NC(=O)[C@H](C)NC(=O)[C@H](CCCCN)NC1=O | 31
CC(=O)N[C@H]1CCCCC[S@@](=O)C[C@@H](C(N)=O)NC(=O)[C@H](C)NC(=O)[C@H](CO)NC(=O)[C@H](C)NC1=O | 65
CC(=O)N[C@H]1CCCCC[S@@](=O)C[C@@H](C(N)=O)NC(=O)[C@H](C)NC(=O)CNC(=O)[C@H](C)NC1=O | 54
CC(=O)N[C@H]1CCCCC[S@@](=O)C[C@@H](C(N)=O)NC(=O)[C@H](C)NC(=O)[C@H](CCC(N)=O)NC(=O)[C@H](C)NC1=O | 93
CC(=O)N[C@H]1CCCCC[S@@](=O)C[C@@H](C(N)=O)NC(=O)[C@H](C)NC(=O)[C@H](C)NC(=O)[C@H](C)NC1=O | 100
